Patent US6893870 (Human Genome Sciences, dated 2005)

Molecular target: tissue plasminogen activator (UniProt P00750 36-562, limits assumed)
Assay: cell-based or functional assay

Sequence of tissue plasminogen activator (P00750 36-562 limits assumed): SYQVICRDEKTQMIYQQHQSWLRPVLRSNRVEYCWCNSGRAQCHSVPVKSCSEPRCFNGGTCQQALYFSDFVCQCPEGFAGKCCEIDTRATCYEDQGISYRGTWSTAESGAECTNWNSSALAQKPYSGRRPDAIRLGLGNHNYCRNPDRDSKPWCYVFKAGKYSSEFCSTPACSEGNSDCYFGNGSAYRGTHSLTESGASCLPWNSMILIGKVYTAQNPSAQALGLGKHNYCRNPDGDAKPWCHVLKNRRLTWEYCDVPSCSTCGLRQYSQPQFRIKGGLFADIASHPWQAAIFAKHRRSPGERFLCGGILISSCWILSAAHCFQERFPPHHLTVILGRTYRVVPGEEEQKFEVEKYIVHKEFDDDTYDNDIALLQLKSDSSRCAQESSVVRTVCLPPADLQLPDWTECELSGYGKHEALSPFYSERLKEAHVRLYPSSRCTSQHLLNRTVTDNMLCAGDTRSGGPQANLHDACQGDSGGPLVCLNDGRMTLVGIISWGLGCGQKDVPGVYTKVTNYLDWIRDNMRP

B1: pancreas-derived plasminogen activator inhibitor (PAPAI) protein (other)
chain: SRCSAQKNTEFAVDLYQEVSLSHKDNIIFSPLGITLVLEMVQLGAKGKAQQQIRQTLKQQETSAGEEFLVLKSFCSAISEKKQEFTFNLANALYLQEGFTVKEQYLHGNKEFFQSAIKLVDFQDAKACAEMISTWVERKTDGKIKDMFSGEEFGPLTRLVLVNAIYFKGDWKQKFRKEDTQLINFTKKNGSTVKIPMMKALLRTKYGYFSESSLNYQVLELSYKGDEFSLIIILPAEGMDIEEVEKLITAQQILKWLSEMQEEEVEISLPRFKVEQKVDFKDVLYSLNITEIFSGGCDLSGITDSSEVYVSQVTQKVFFEINEDGSEAATSTGIHIPVIMSLAQSQFIANHPFLFIMKHNPTESILFMGRVTNPDTQEIKGRDLDSL
B1 was tested. Which “anti-tPA activity (plasminogen activator inhibitory activity) of concentrated conditioned media” value did it give?
The value was 3 fold over PAPAI negative clones.
